Legend:
Experiment in all cases: cell-based or functional assay
[1] = biological target: HIV-1 Env gp120 of virus CH058, on infected cells (HIV-1)
[2] = biological target: HIV-1 Env of isolate 8320 (HIV-1)
[3] = biological target: HIV-1 Env of isolate 8110 (HIV-1)
[4] = biological target: HIV-1 Env of isolate 8117 (HIV-1)
[5] = biological target: HIV-1 Env of isolate 8176 (HIV-1)
[6] = biological target: HIV-1 Env of isolate 8359 (HIV-1)
[7] = biological target: HIV-1 Env of isolate 92US712 (HIV-1)

For PGT-121.60 (antibody), the Maximum percent of HIV-infected cells killed; PBMC-derived effector cells; donor 1003277; virus CHO58 [1] was 66.2%, the Maximum percent of HIV-infected cells killed; PBMC-derived effector cells; donor 1004344; virus CHO58 [1] was 82.8% and the Maximum percent of HIV-infected cells killed; tonsil-derived effector cells; donor 1003277; virus CHO58 [1] was 10.9%. The Maximum percent of HIV-infected cells killed; tonsil-derived effector cells; donor 1004344; virus CHO58 [1] was 0%, the Potency (IC50) of killing HIV-infected cells; PBMC-derived effector cells; donor 1003277; virus CHO58 [1] was 0.706 mg/L and the Potency (IC50) of killing HIV-infected cells; PBMC-derived effector cells; donor 1004344; virus CHO58 [1] was 0.094 mg/L. For the same substance, the Potency (IC50) of killing HIV-infected cells; tonsil-derived effector cells; donor 1003277; virus CHO58 [1] was greater than 10 mg/L, the Potency (IC50) of killing HIV-infected cells; tonsil-derived effector cells; donor 1004344; virus CHO58 [1] was greater than 10 mg/L and the IC50 (neutralization, CEM.NKr.CCR5.LucR based assay) [2] was greater than 100 mg/L. It also gave an IC50 (neutralization, CEM.NKr.CCR5.LucR based assay) [3] of 0.514 mg/L, an IC50 (neutralization, CEM.NKr.CCR5.LucR based assay) [4] greater than 100 mg/L and an IC50 (neutralization, CEM.NKr.CCR5.LucR based assay) [5] of 0.028 mg/L. It also gave an IC50 (neutralization, CEM.NKr.CCR5.LucR based assay) [6] of 0.337 mg/L and an IC50 (neutralization, CEM.NKr.CCR5.LucR based assay) [7] of 0.019 mg/L.
